Here are results for four molecules from patent publication US20080025968A1 (YEDA RESEARCH AND DEVELOPMENT, published 2008).

Sequences and labels used below:
T1: p55 TNF receptor, endogenous in Ramos cells (human, UniProt P19438 30-455)
T1 construct: whole, on cells; TNF-receptor complex precipitated as described by Zhang et al., 2000
T1 sequence (looked up): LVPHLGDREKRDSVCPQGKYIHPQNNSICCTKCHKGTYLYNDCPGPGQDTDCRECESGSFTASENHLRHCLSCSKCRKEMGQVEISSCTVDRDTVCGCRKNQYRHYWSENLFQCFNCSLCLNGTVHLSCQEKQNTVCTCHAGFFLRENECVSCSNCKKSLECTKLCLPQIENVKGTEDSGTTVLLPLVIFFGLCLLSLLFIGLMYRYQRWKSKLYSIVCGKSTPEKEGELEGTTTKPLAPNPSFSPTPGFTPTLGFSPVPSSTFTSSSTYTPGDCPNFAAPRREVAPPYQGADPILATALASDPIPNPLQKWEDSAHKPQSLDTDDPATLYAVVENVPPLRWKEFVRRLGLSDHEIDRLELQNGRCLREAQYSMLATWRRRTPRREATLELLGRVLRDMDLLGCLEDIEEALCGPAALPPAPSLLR

T2: NF-κB2/p100, endogenous (human, UniProt Q00653 1-900)
T2 construct: mature
T2 sequence (looked up): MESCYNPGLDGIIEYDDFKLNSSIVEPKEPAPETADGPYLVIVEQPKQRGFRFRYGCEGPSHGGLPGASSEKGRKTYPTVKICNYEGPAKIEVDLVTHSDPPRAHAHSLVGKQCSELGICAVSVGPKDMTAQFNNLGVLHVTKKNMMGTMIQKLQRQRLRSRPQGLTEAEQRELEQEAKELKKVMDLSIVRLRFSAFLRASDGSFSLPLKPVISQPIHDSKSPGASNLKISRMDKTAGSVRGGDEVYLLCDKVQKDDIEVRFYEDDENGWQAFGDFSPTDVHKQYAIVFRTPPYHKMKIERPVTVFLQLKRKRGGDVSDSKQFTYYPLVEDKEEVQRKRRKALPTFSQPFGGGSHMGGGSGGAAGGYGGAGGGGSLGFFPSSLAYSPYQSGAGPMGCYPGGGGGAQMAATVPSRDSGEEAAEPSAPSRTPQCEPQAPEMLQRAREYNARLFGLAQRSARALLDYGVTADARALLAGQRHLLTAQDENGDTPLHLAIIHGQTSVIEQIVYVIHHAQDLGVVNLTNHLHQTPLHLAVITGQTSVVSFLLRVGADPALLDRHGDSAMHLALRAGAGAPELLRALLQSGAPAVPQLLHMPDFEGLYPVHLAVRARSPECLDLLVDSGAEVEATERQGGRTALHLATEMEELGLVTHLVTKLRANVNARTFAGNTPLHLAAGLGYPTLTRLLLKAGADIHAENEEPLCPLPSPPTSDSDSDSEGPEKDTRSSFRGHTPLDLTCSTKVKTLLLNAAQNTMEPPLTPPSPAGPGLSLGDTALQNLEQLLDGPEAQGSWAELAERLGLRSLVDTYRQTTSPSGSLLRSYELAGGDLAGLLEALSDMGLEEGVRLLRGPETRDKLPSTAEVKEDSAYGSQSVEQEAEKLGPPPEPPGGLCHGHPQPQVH

B1: IκBα, endogenous (other, human, UniProt P25963 1-317, looked up)
chain: MFQAAERPQEWAMEGPRDGLKKERLLDDRHDSGLDSMKDEEYEQMVKELQEIRLEPQEVPRGSEPWKQQLTEDGDSFLHLAIIHEEKALTMEVIRQVKGDLAFLNFQNNLQQTPLHLAVITNQPEIAEALLGAGCDPELRDFRGNTPLHLACEQGCLASVGVLTQSCTTPHLHSILKATNYNGHTCLHLASIHGYLGIVELLVSLGADVNAQEPCNGRTALHLAVDLQNPDLVSLLLKCGADVNRVTYQGYSPYQLTWGRPSTRIQQQLGQLTLENLQMLPESEDEESYDTESEFTEFTEDELPYDDCVFGGQRLTL
notes: mature
B2: C-terminal part of SIVA (amino acids 123-175 in SIVA1 or 58-110 in SIVA2), yeast two-hybrid clone (other)
chain: GKAVCGQCERALCGQCVRTCWGCGSVACTLCGLVDCSDMYEKVLCTSCAMFET
notes: Clone from a human bone marrow two-hybrid library; also called SIVA clone; C-terminal SIVA fragment; not shown: Gal4 fusion partner of the library clone / pGADT7 or pGBKT7 vector; not specified
B3: NF-κB2/p52, endogenous (other, human, UniProt Q00653 1-454, looked up)
chain: MESCYNPGLDGIIEYDDFKLNSSIVEPKEPAPETADGPYLVIVEQPKQRGFRFRYGCEGPSHGGLPGASSEKGRKTYPTVKICNYEGPAKIEVDLVTHSDPPRAHAHSLVGKQCSELGICAVSVGPKDMTAQFNNLGVLHVTKKNMMGTMIQKLQRQRLRSRPQGLTEAEQRELEQEAKELKKVMDLSIVRLRFSAFLRASDGSFSLPLKPVISQPIHDSKSPGASNLKISRMDKTAGSVRGGDEVYLLCDKVQKDDIEVRFYEDDENGWQAFGDFSPTDVHKQYAIVFRTPPYHKMKIERPVTVFLQLKRKRGGDVSDSKQFTYYPLVEDKEEVQRKRRKALPTFSQPFGGGSHMGGGSGGAAGGYGGAGGGGSLGFFPSSLAYSPYQSGAGPMGCYPGGGGGAQMAATVPSRDSGEEAAEPSAPSRTPQCEPQAPEMLQRAREYNARLFGLA
B4: RelB, endogenous (other, human, UniProt Q01201 1-579, looked up)
chain: MLRSGPASGPSVPTGRAMPSRRVARPPAAPELGALGSPDLSSLSLAVSRSTDELEIIDEYIKENGFGLDGGQPGPGEGLPRLVSRGAASLSTVTLGPVAPPATPPPWGCPLGRLVSPAPGPGPQPHLVITEQPKQRGMRFRYECEGRSAGSILGESSTEASKTLPAIELRDCGGLREVEVTACLVWKDWPHRVHPHSLVGKDCTDGICRVRLRPHVSPRHSFNNLGIQCVRKKEIEAAIERKIQLGIDPYNAGSLKNHQEVDMNVVRICFQASYRDQQGQMRRMDPVLSEPVYDKKSTNTSELRICRINKESGPCTGGEELYLLCDKVQKEDISVVFSRASWEGRADFSQADVHRQIAIVFKTPPYEDLEIVEPVTVNVFLQRLTDGVCSEPLPFTYLPRDHDSYGVDKKRKRGMPDVLGELNSSDPHGIESKRRKKKPAILDHFLPNHGSGPFLPPSALLPDPDFFSGTVSLPGLEPPGGPDLLDDGFAYDPTAPTLFTMLDLLPPAPPHASAVVCSGGAGAVVGETPGPEPLTLDSYQAPGPGDGGTASLVGSNMFPNHYREAAFGGGLLSPGPEAT
notes: mature

The target of assay [1] is T1, p55 TNF receptor, endogenous in Ramos …. Briefly: western blot of the p55 TNF receptor complex from Ramos cells (FIG. 6a). On the procedure:
Transfections, immunoblotting and immunoprecipitations were performed as described in Example 2 and Example 3 of the Examples section. For immunoprecipitation of the CD70/CD27 ligand-receptor complexes from resting PBMC and Ramos cells, cell lysates were prepared as described for the kinase tests aforementioned and incubated for 4 hours at 4° C. with 25 μl of 50% M2-FLAG agarose beads per ml of lysate. The TNF-receptor complex was precipitated as described (Zhang et al., 2000). The signalosome from cell lysates was immunoprecipitated using a 1:1 mixture of two different antibodies against IKK1 (M-280 and H-744, Santa Cruz). Immunoprecipitation was allowed to continue for 2 hours at 4° C., using 10 μg of anti-IKKα antibodies adsorbed to 25 μl of 50% protein-A-Sepharose beads per ml of lysate.

In assay [2] the target is T3, NIK 624-947 (C-terminal part of NIK), yeast two-hybrid construct (human, UniProt Q99558 624-947).
T3 construct: Yeast two-hybrid construct used in the β-galactosidase assay in SFY526 yeast; also called C-terminally mutant (NIK 624-947); the C-terminal portion of NIK; not shown: Gal4 fusion partner from pGBKT7 or pGADT7
Briefly: yeast two-hybrid, β-galactosidase colour assay in SFY526. As to the method: FIG. 1a illustrates yeast two-hybrid binding assays of NIK to SIVA. The binding of NIK and its C-terminally mutant (NIK 624-947) to the C-terminal part of SIVA (amino acids 123-175 in SIVA1 or 58-110 in SIVA2) or TRAF2, was assessed using transformed SFY526 yeast. The development of a strong color reaction within 1 hour and 3 hours is indicted as ‘++’ and ‘+’, respectively; ‘−’ indicates no color development within 24 h.
A BamHI/XhoI digested NIK insert from the pcNIK vector was subcloned into BamHI/SalI sites of the Gal4 DNA-binding domain vector pGBKT7 (Clontech). A pre-transformed human bone marrow library (HL4053AH, Clontech) was subjected to two-hybrid screening using pGBKT7-NIK as the bait, according to the manufacturer's instructions (Yeast protocol handbook, Clontech—www.clontech.com) Positive clones were identified by quadruple selection and β-galactosidase activity assay. Binding of the SIVA clone to NIK and NIK624-947 was reconfirmed and binding of NIK to TRAF2 was assessed-by a β-galactosidase expression assay using the yeast SFY526 reporter strain (Clontech) and the pGBKT7 and pGADT7 vectors.

The assay “RelB, endogenous” concerns the target B4. The assay can be described thus: anti-RelB immunoprecipitation from nuclear extracts of Ramos cells, western blot. As to the method:
(§1) FIG. 3g is an immunoprecipitation analysis with RelB of various NF-κB proteins from nuclear extracts of the Ramos cells, 15 minutes and 4 hours after the application of TNF or CD70 to the cells. Levels of p100, NS and p52 were detected by western blot analysis.
(§2) For immunoprecipitation of the NF-κB proteins, nuclear extracts from 10-20×10⁶ cells were diluted to achieve the following composition: 0.5% NP-40, 10 mM HEPES pH 7.9, 150 mM NaCl, 1 mM EDTA, 1 mM EGTA, 1 mM dithiothreitol (DTT), 1 mM PMSF, and 1× complete protease inhibitor cocktail. Anti-RelB antibody preadsorbed to protein-A-Sepharose beads (Amersham Biosciences) was incubated with precleared nuclear lysates for 2 hours at 4° C. The immunoprecipitates were analyzed by SDS-PAGE using 4-12% Bis-Tris NuPAGE gels (Invitrogen), and the gels were subjected to western blotting as described above.

The target of a further assay is T2, NF-κB2/p100, endogenous. The assay is described as above. On the procedure: as §1, §2

T3 sequence (Q99558 624-947): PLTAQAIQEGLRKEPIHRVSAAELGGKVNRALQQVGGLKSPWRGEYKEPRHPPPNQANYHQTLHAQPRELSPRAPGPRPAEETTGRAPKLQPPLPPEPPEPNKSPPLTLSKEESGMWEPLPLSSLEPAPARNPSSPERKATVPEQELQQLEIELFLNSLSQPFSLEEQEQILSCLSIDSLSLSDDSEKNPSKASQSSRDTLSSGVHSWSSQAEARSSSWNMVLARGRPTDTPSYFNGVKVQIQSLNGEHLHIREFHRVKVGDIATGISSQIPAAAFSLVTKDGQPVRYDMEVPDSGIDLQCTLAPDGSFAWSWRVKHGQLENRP

B1: in assay [1], the binding result is reported as “binds”. As for B2, in assay [2], the binding result is given as “binds”. On to B3, for which the binding result in the assay with RelB, endogenous was “binds”.

Take B4: in the assay with NF-κB2/p100, endogenous, the binding result is listed as “binds”.
